US6852319 (Scripps Research, dated 2005)

T1: purified 185 kD streptococcal antigen (SA) I/II cell surface adhesion molecule (Streptococcus mutans, UniProt P23504 39-1532)
T1 construct: also called purified SA; streptococcal antigen I/II
T1 sequence (looked up): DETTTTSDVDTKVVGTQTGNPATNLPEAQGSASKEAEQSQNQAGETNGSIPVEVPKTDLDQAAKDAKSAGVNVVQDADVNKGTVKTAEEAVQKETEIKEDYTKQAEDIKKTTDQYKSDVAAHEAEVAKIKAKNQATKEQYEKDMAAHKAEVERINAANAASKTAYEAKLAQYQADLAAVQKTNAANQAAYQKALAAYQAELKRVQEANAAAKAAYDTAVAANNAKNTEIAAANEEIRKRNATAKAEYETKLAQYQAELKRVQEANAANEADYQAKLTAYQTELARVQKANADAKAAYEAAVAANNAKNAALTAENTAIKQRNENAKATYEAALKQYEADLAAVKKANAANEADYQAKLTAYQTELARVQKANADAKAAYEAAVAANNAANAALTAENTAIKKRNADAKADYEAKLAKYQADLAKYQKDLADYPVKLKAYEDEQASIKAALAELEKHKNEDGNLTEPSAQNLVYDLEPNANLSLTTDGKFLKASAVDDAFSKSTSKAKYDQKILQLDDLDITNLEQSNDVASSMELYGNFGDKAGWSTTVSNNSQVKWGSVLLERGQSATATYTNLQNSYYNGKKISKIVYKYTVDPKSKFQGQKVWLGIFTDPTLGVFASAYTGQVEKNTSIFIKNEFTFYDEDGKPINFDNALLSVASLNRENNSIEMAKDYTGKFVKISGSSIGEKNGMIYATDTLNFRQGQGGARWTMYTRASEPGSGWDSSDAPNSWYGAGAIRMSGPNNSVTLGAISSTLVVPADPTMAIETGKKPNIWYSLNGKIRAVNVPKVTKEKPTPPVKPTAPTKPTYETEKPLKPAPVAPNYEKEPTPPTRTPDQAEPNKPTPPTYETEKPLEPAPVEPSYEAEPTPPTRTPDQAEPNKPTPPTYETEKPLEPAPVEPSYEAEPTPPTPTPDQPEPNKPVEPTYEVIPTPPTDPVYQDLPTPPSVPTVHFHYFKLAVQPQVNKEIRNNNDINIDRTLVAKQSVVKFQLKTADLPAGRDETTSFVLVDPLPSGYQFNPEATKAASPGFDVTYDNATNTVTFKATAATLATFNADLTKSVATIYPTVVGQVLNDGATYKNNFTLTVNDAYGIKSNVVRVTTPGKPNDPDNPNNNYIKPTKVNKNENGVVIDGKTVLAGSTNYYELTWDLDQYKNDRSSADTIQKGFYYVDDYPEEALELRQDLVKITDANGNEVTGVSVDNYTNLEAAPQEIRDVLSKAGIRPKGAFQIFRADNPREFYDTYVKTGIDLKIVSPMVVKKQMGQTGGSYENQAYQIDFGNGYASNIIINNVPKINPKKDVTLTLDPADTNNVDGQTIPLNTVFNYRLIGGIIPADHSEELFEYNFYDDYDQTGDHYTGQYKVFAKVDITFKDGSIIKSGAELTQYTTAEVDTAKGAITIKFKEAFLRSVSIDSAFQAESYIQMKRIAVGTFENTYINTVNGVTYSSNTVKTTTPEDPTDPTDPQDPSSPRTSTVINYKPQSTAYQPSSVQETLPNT


Key:
[1] = target: T1, purified 185 kD streptococcal antigen …; test: ELISA of plant leaf extract on purified SA I/II coated plates
[2] = target: dIgA-G, plant-expressed dimeric IgA-G with mouse J chain (murine; mouse) (UniProt P01878); test: initial estimate in extracts of SIgA-G plants (data not shown)
Sequence of dIgA-G, plant-expressed dimeric IgA-G with mouse J chain (murine; mouse) (P01878 116-344, form in doubt): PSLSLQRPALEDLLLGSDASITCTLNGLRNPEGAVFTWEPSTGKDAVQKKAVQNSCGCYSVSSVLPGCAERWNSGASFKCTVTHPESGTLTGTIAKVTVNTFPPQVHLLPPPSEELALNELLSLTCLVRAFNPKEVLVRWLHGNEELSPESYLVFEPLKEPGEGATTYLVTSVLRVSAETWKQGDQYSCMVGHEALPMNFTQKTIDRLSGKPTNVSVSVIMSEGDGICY

Binder | binding result [1] | percent of SC associated with dimeric IgA-G [2] [%]
mouse J chain expressed in tobacco (other, also called joining chain) GDDEATILADNKCMCTRVTSKIIPSTEDPNEDIVERNIRIVVPLNNRENISDPTSPLRRNFVYHLSDVCKKCDPVEVELEDQVVTATQSNICNEDDGVPETCYMYDRNKCYTTMVPLRYHGETKMVQAALTPDSCYPD | no binding | 
rabbit secretory component (SC) construct expressed in tobacco (receptor, also called rabbit SC) QSSLLGPSSIFGPGEVNVLEGDSVSITCYYPTTSVTRHSRKFWCREEESGRCVTLASTGYTSQEYSGRGKLTDFPDKGEFVVTVDQLTQNDSGSYKCGVGVNGRGLDFGVNVLVSQKPEPDDVVYKQYESYTVTITCPFTYATRQLKKSFYKVEDGELVLIIDSSSKEAKDPRYKGRITLQIQSTTAKEFTVTIKHLQLNDAGQYVCQSGSDPTAEEQNVDLRLLTPGLLYGNLGGSVTFECALDSEDANAVASLRQVRGGNVVIDSQGTIDPAFEGRILFTKAENGHFSVVIAGLRKEDTGNYLCGVQSNGQSGDGPTQLRQLFVNEEIDVSRSPPVLKGFPGGSVTIRCPYNPKRSDSHLQLYLWEGSQTRHLLVDSGEGLVQKDYTGRLALFEEPGNGTFSVVLNQLTAEDEGFYWCVSDDDESLTTSVKLQIVDGEPSPTIDKFTAVQGEPVEITCHFPCKYFSSEKYWCKWNDHGCEDLPTKLSSSGDLVKCNNNLVLTLTLDSVSEDDEGWYWCGAKDGHEFEEVAAVRVELTEPAKVAVEPAKVPVDPAKAAPAPAEEKAKARCPVPRRRQWYPLSRKLRTSCPEPRLLAEEVAVQSAE | no binding | 50
